Test results reported in publication PMC2196039.
Where “and” joins values, the source holds several entries; their conditions need not be identical. Equal entries are not always repeated. Where two headings read alike, the source gives them in different places. Blank lines part the entries; values can stand above or below the substance they belong to.

Columns and labels:
[1] = biological target: soluble recombinant CD80 (sCD80), sCD80his after removal of the carboxy-terminal oligo-histidine tag (human); experiment: SPR
[2] = biological target: CD28 Ig (UniProt P10747); experiment: SPR
[3] = biological target: CTLA-4 Ig (human) (UniProt P16410); experiment: SPR
[4] = biological target: CD28 Ig (UniProt P10747); experiment: SPR; remark: listed apart in the source
[5] = biological target: CTLA-4 Ig (human) (UniProt P16410); experiment: SPR; remark: listed apart in the source
[6] = biological target: CD28 Ig (UniProt P10747); experiment: SPR; remark: listed apart in the source
[7] = biological target: CTLA-4 Ig (human) (UniProt P16410); experiment: SPR; remark: listed apart in the source
[8] = biological target: CTLA-4 Ig (human) (UniProt P16410); experiment: pull-down
[9] = biological target: CD28 Ig (UniProt P10747); experiment: SPR; remark: listed apart in the source
[10] = biological target: CTLA-4 Ig (human) (UniProt P16410); experiment: SPR; remark: listed apart in the source

CTLA-4 Ig, sequence (P16410 37-161): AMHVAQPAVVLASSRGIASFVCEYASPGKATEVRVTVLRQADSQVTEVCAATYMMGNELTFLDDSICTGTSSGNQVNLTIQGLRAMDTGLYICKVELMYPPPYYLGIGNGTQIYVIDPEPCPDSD

fold higher avidity than CD28 Ig [1]: > 100 fold
Substance: CTLA-4 Ig (from UniProt P16410 37-161) (Fc fusion)

Kd [2]: 4200 nM
Kd [3]: 380 nM
Kd [4]: 4000 nM
Kd [5]: 420 nM
Kd [6]: 2500 nM
Kd [7]: 260 nM
proportion of sCD80 with CTLA-4-binding activity [8]: 100%
Kd [9]: 4100 nM and 4300 nM
response at 0.82 μM sCD80 (CD28 Ig 7800 RUs), beginning of the experiment [9]: 160 RU
t1/2 of dissociation (high CD28 Ig level, 40 μl/min) [9]: 0.93 s
t1/2 of dissociation (high CD28 Ig level, 80 μl/min) [9]: 0.84 s
t1/2 of dissociation (low CD28 Ig level, 40 μl/min) [9]: 0.69 s
t1/2 of dissociation (low CD28 Ig level, 80 μl/min) [9]: 0.64 s
Kd [10]: 400 nM
response at 0.26 μM sCD80 (CTLA-4 Ig 1,500 RUs), beginning of the experiment [10]: 255 RU
response at 0.26 μM sCD80 (CTLA-4 Ig 1,500 RUs), end of the experiment [10]: 250 RU
t1/2 of dissociation (high CTLA-4 Ig level, 20 μl/min) [10]: 4.8 s
t1/2 of dissociation (high CTLA-4 Ig level, 40 μl/min) [10]: 4.4 s
t1/2 of dissociation (low CTLA-4 Ig level, 20 μl/min) [10]: 2.2 s
t1/2 of dissociation (low CTLA-4 Ig level, 40 μl/min) [10]: 2.35 s
Substance: soluble recombinant CD80 (sCD80), sCD80his after removal of the carboxy-terminal oligo-histidine tag (domain or fragment)
